Source: article doi:10.1101/282814 (bioRxiv, 2018)

B1: human TRPC6 channel, full length, tags cleaved, in MSP2N2 lipid nanodiscs (natural protein, UniProt Q9Y210 1-931, looked up)
chain: MSQSPAFGPRRGSSPRGAAGAAARRNESQDYLLMDSELGEDGCPQAPLPCYGYYPCFRGSDNRLAHRRQTVLREKGRRLANRGPAYMFSDRSTSLSIEEERFLDAAEYGNIPVVRKMLEECHSLNVNCVDYMGQNALQLAVANEHLEITELLLKKENLSRVGDALLLAISKGYVRIVEAILSHPAFAEGKRLATSPSQSELQQDDFYAYDEDGTRFSHDVTPIILAAHCQEYEIVHTLLRKGARIERPHDYFCKCNDCNQKQKHDSFSHSRSRINAYKGLASPAYLSLSSEDPVMTALELSNELAVLANIEKEFKNDYKKLSMQCKDFVVGLLDLCRNTEEVEAILNGDVETLQSGDHGRPNLSRLKLAIKYEVKKFVAHPNCQQQLLSIWYENLSGLRQQTMAVKFLVVLAVAIGLPFLALIYWFAPCSKMGKIMRGPFMKFVAHAASFTIFLGLLVMNAADRFEGTKLLPNETSTDNAKQLFRMKTSCFSWMEMLIISWVIGMIWAECKEIWTQGPKEYLFELWNMLDFGMLAIFAASFIARFMAFWHASKAQSIIDANDTLKDLTKVTLGDNVKYYNLARIKWDPSDPQIISEGLYAIAVVLSFSRIAYILPANESFGPLQISLGRTVKDIFKFMVIFIMVFVAFMIGMFNLYSYYIGAKQNEAFTTVEESFKTLFWAIFGLSEVKSVVINYNHKFIENIGYVLYGVYNVTMVIVLLNMLIAMINSSFQEIEDDADVEWKFARAKLWFSYFEEGRTLPVPFNLVPSPKSLFYLLLKLKKWISELFQGHKKGFQEDAEMNKINEEKKLGILGSHEDLSKLSLDKKQVGHNKQPSIRSSEDFHLNSFNNPPRQYQKIMKRLIKRYVLQAQIDKESDEVNEGELKEIKQDISSLRYELLEEKSQNTEDLAELIRELGEKLSMEPNQEETNR
B2: N-terminal GFP-tagged hTRPC6 (natural protein, human, UniProt Q9Y210 1-931, looked up)
chain: B1 chain

Legend:
cryo-EM structure = molecular target: the molecule itself; experiment: cryo-EM structure
SEC = molecular target: the molecule itself; experiment: SEC

Protein | stoichiometry N (cryo-EM structure) | stoichiometry N (SEC)
B1 | 4 | 
B2 |  | 4
